Assay results as given in the RNAGym collection of RNA variant scans (doi:10.1073/pnas.2313332121).
Fewer inactive variants are shown than the library holds.

B1: TPR 5TU (parent)
chain: GGAUCUUCUCGAUCUAACAAAAAAGACAAAUCUGCCACAAAGCUUGAGAGCAUCUUCGGAUGCAGAGGCGGCAGCCUUCGGUGGCGCGAUAGCGCCAACGUUCUCAACUAUGACACGCAAAACGCGUGCUCCGUUGAAUGGAGUUUAUCAUG

Variants of: B1
Assay: polymerase ribozyme fitness, log enrichment relative to wild type (log ratio); higher = more active; in vitro selection for triplet polymerase activity
How it was run: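 In triplicate, a single round of in vitro selection was run on each mutant library, PCR-built and transcribed, covering one subunit of a heterodimeric triplet polymerase ribozyme. Frozen incubation at −7 °C followed annealing with a biotinylated primer, partner subunit and triplets, and extended constructs were then gel-excised, streptavidin-captured and taken through RT-PCR. Fitness is the logarithm of genotype enrichment over wild-type enrichment, from inverse-variance-weighted replicate averages of Illumina-sequenced inputs and outputs. […] only genotypes with ≥10 input reads and ≥1 read per output were kept.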

Row | Variant | polymerase ribozyme fitness (log ratio)
1 | A52C A66G C72A A97U C99A | ≤ -4.2
2 | G50A A120G A122U A150U | -2.03
3 | G50C C123U | -2.4
4 | A49G G117U | -0.367
5 | A49G G117A | -0.467
6 | A52C C118U G143A U144C | -3.94
7 | A49C U146A | -3.98
8 | A49G U53C C114U | -2.54
9 | G50A C57U C76U C125U A142C U144G A150G | -3.98
10 | A49C U109G | ≤ -4.2
11 | C51A C75U A98U | -3.28
12 | G50U G84A U148G | ≤ -4.2
13 | A52C C75U C85G C95G | ≤ -4.2
14 | A49U C51A U55G C95A | -2.79
15 | C51U A52G C76A A89G A97C C105U A119C G141U | ≤ -4.2
16 | C51G C87U C114G | ≤ -4.2
17 | C51G C85A G92U C95A | ≤ -4.2
18 | G50A C108A G124U U148G | ≤ -4.2
19 | G50C A60G | -2.31
20 | G50A G94U | -3.07
21 | A49U G50A C85G C116G A121U | -1.16

Row | Variant | polymerase ribozyme fitness (log ratio)
22 | G50A U55A A91U U135C | ≤ -4.2
23 | C51U C95A U104C C116G | -0.304
24 | A49U G84U A97C G126C A138G A150G | ≤ -4.2
25 | G50A U56A C87U G124A | -2.44
26 | A49U C96A | -3.45
27 | G50C U109G A113G A120C U130G | ≤ -4.2
28 | G50A U55G A97G U102G | -3.43
29 | G50A U56A G86A | -3.11
30 | G50A C51G G83U G84A G141U | ≤ -4.2
31 | G50C A52G U77A G128U A142U | ≤ -4.2
32 | G50A C79A | ≤ -4.2
33 | A49U G59A A122U | -0.783
34 | G50A C95A U111A U135A | ≤ -4.2
35 | A52C A60C | -2.71
36 | G50A C54U U56A G70A C87G U90A C95G U109G C114G G141U | ≤ -4.2
37 | A49U G133U | -3.93
38 | G50A C57A U127A G143U | -4.04
39 | A49C U56C | ≤ -4.2
40 | A52C G58C G88U | ≤ -4.2
41 | A49U G68C | ≤ -4.2
42 | A52C A73G A138G | ≤ -4.2

Row | Variant | polymerase ribozyme fitness (log ratio)
43 | C51U G94U | -1.45
44 | A49U C51U A147C | -0.373
45 | A52C C96A C118G C125A | -2.23
46 | A49U A52G C96U C99G | ≤ -4.2
47 | G50U G126C A138U | ≤ -4.2
48 | G50C A120U A121C | -2.61
49 | A52C C57U U102G U146G | ≤ -4.2
50 | A49G G50A G84A A97G | -3.11
51 | G50U A60U C87U G94A U146A | ≤ -4.2
52 | G50C G80C C93A A98U | ≤ -4.2
53 | A52C C93G A122G | -3.18
54 | C51U C93G A120C G143C | -4.17
55 | G50C G80A C85U C87U C108U | ≤ -4.2
56 | C51U A115U | -2.12
57 | A49G A52C G86C | -3.61
58 | G50C U90A | ≤ -4.2
59 | G50C U56A G59C | -3.03
60 | G50A C54U C85U G92U U148A | ≤ -4.2
61 | G50U U61G C108U U135A | ≤ -4.2
62 | C51A U55G C95U C105A G117U | ≤ -4.2
63 | G50A U53A C85A U109G A115G C116G G126C | ≤ -4.2

Row | Variant | polymerase ribozyme fitness (log ratio)
64 | A49G C51A G94A G124U | -3.32
65 | G50C A73U G80A G81U C95A G100U U151C | ≤ -4.2
66 | G50C G68U C85U G92U A106G | ≤ -4.2
67 | G50U A91U | ≤ -4.2
68 | G50U A91G | -2.52
69 | C51U G68U C87U U145C | ≤ -4.2
70 | C51U C85G A106G | -2.8
71 | C51U G58A G92C G136A U148C | -3.3
72 | C51A C72U G74C C93A G141A | ≤ -4.2
73 | G50U C54G | -1.98
74 | C51A A60G A89U | -1.65
75 | C51U G83U G86U G94A U135G U144G G152C | ≤ -4.2
76 | G50U C95G U104A | -1.95
77 | G50A G136U | -2.96
78 | A52C C54U U78A C87U U135A | ≤ -4.2
79 | G50U A113C U139G | -3.93
80 | C51G G58U C93G C123U | ≤ -4.2
81 | G50A C85A | -3.59
82 | A49U U55C U56A A73U C93U G117C | ≤ -4.2
83 | A49C U55G C76U C87A C99U C105U A120U | ≤ -4.2
84 | C51G U56A G68A C93U A97G U104G G143A U146A | ≤ -4.2
